Test results published in PMC9550759.

Molecular target: high-affinity binding sites and low-affinity sites for VEGF165 on the SK-MEL-28 cell line (human (endogenous in SK-MEL-28))
Test: radioligand binding; radio-receptor assay with [125I]-labeled VEGF165 on SK-MEL-28 cells; two classes of sites; data not shown

Substance “Recombinant Human VEGF165 (from UniProt P15692-4 1-191) (ligand)” has a KD, high-affinity sites of 0.13 nM and a KD, low-affinity sites of 4.1 nM.
